{"source": "patent US11505583B2", "about": "“Proteins for the treatment of epithelial barrier function disorders” (Second Genome, Inc., priority 2018, dated 2022)", "molecules": {"B1": {"name": "SG-11 (SEQ ID NO:7): Recombinant SG-11 with N-terminal methionine, 233 amino acids, no N-terminal tag (protein)", "chain": "MLEGEESVVYVGKKGVIASLDVETLDQSYYDETELKSYVDAEVEDYTAEHGKNAVKVESLKVEDGVAKLKMKYKTPEDYTAFNGIELYQGKVVASLAAGYVYDGEFARVEEGKVVGAATKQDIYSEDDLKVAIIRANTDVKVDGEICYVSCQNVKLTGKDSVSIRDGYYLETGSVTASVDVTGQESVGTEQLSGTEQMEMTGEPVNADDTEQTEAAAGDGSFETDVYTFIVYK"}, "B2": {"name": "SG-11V5: SG-11 variant SEQ ID NO:19 comprising N53S, N83S, C147V, C151S with respect to SEQ ID NO:7 (protein)", "chain": "B1 chain with N53S, N83S, C147V, C151S"}}, "key": {"[1]": {"assay": "Post-translational modifications after storage, LC-MS/MS, SG-11 vs SG-11V5 (Example 10)", "type": "physicochemical", "details": "for Oxidation of M1 (MLEGEESVVYVGK): 1 mg/ml in Buffer 1 (50 mM NaPO4, pH 8, 150 mM NaCl, 10% glycerol)", "method": "In accordance with PTMs observed when SG-11 (SEQ ID NO:9) was subjected to stress conditions (Example 11), SG-11V5 (SEQ ID NO:19) was analyzed by LC-MS/MS for post translational modifications using the methods described in Example 11, and compared with PTMs for SG-11 (SEQ ID NO:7)\nFor this analysis, PTMs of wildtype SG-11 (SEQ ID NO:7) and SG-11V5 (SEQ ID NO:19) were compared. In the first analysis (results provided in Table 10 below), the proteins were stored at a concentration of 1 mg/ml in Buffer 1 (50 mM NaPO4^−, pH 8, 150 mM NaCl, 10% glycerol) and stored for 2 weeks at either 4° C. or 40° C. The proteins were then treated with DTT and IAA, followed by trypsin digestion. The digested samples were then analyzed by Waters ACQUITY UPLC couples to Xevo G2-XS QTOF mass spectrometer using a Protein BEH C18 column.\nIn a second analysis, the SG-11 (SEQ ID NO:7) and SG-11V5 (SEQ ID NO:19) proteins were each stored at 40° C. in a variety of buffers. The storage buffer used in this experiment was 100 mM NaPO4^−, pH7, with 10% sorbitol (+Sor) or without 10% sorbitol (−Sor) and with 10% glycerol (+Gly) or without 10% glycerol (−Gly) as indicated in Table 11. […] There were also differences in levels of N137 deamidation for the two proteins with the presence of at least glycerol and also the presence of both sorbitol and glycerol resulting in large decreases in N137 deamidation."}, "[2]": {"system": "C57BL/6 mice given 2.5% DSS in drinking water", "assay": "Therapeutic DSS model of inflammatory bowel disease, treatment after 7 days DSS (Example 5, Example 13B)", "type": "in vivo, mouse", "details": "Example 13B; for LBP in serum (ELISA): 50 nmole/kg i.p. b.i.d. for 4 days after 7 days DSS, FIG. 19B; for Colon length / Colon weight to length ratio: 50 nmole/kg, vs DSS+vehicle; for Colon length: FIG. 22B; for Colon weight to length ratio: p<0.01, FIG. 23B; for Body weight changes: 50 nmoles/kg, day 11, p<0.05, FIG. 20B", "method": "In this example, experiments were performed to study the effects of SG-11 in the DSS mouse model when the SG-11 protein is administered to the mice after DSS treatment for 7 days. This differs from the treatment regimen of Example 4 above in which mice were administered SG-11 protein shortly before treatment with DSS.\nEight-week-old male C57BL/6 mice were housed 5 animals per cage and given food and water ad libitum for seven days. Following a 7-day acclimation period, the mice were provided with drinking water containing 2.5% DSS for 7 days. Fresh 2.5% DSS water was prepared every 2 days during the 7 day DSS administration. For this therapeutic DSS study, SG-11 used to treat the animals was fused at its N-terminus to a FLAG Tag (DYKDDDDK; SEQ ID NO:32).\nOn day 7 normal drinking water was restored and i.p. treatments of 50 nmole/kg of SG-11 (1.3 mg/kg) or Gly2-GLP2 (0.2 mg/kg) were initiated. Treatments were administered twice a day (b.i.d.), with a morning and evening dose (every 8 and 16 hours) for six days.\nBody weight was measured daily during the morning treatment. The colon tissue was then harvested and length was measured in centimeters and the tissue was weighed. Fecal material was flushed from the colon and residual PBS removed by gently running the colon tissue through a pair of forceps. The colon tissue was then weighed and colon weight to length ratio in mg/mm was determined. Following weight measurements proximal and distal colon tissue was banked for RNA and protein analysis and the remaining tissues was fixed in 10% neutral buffered formalin for histopathology. Statistical analysis was performed by a one-way ANOVA compared to DSS+vehicle for serum 4KDa-FITC translocation, serum LBP concentrations, colon length, and colon weight to length ratio, while a two-way ANOVA was performed for analysis of body weight. In all analysis, a Fisher's LSD test for multiple comparisons was used. Graphs represent data pooled from two experiments, and are plotted as mean±SEM.\nHistopathology analysis was performed on proximal and distal colon tissues from the therapeutic DSS model described above. Proximal (FIG. 13A) and distal (FIG. 13B) colon scores (range 0-4) are presented and as well as the total score for the colon which represents the sum of proximal and distal colon scores (Range 0-8) (FIG. 13C). LMA=Loss of mucosal architecture, Edema=Edema, INF=Inflammation, TMI=Transmural inflammation, MH=Mucosal hyperplasia, DYS=Dysplasia. Graphs represent data pooled from two independent experiments, and are plotted as mean±SEM. Statistical analysis was performed by a one-way ANOVA compared to DSS+vehicle followed by a Fisher's LSD test for multiple comparisons.\nIn the second experiment (Example 13B), mice were provided with drinking water containing 2.5% DSS for 7 days. On day 7 normal drinking water was restored and i.p. treatments of 50 nmole/kg of SG-11 (SEQ ID NO:7) (1.3 mg/kg), SG-11V5 (SEQ ID NO:19) (1.3 mg/kg), or Gly2-GLP2 (0.2 mg/kg) were initiated. Treatments were administered twice a day (b.i.d.), with a morning and evening dose (every 8 and 16 hours) for 4 days. For both the prophylactic and therapeutic models fresh 2.5% DSS water was prepared every 2 days during the DSS administration.\nAt the end of each DSS model study, mice were fasted for 4 hours and then orally gavaged with 600 mg/kg 4KDa dextran labeled with fluorescein isothiocyanate (FITC) [4KDa-FITC]. One hour after the 4KDa-FITC gavage mice were euthanized, blood was collected and FITC signal was measured in serum. […] Data in both graphs are plotted as mean±SEM and each figure represent data from an individual experiment (n=10 per group).\nUpon completion of the DSS models above, LBP levels were measured as an inflammation centric readout of barrier function following the protocol detailed in Example 5. Upon completion of both DSS models (Examples 13A and 13B) blood was collected and serum was isolated. […]"}, "[3]": {"details": "4° C., 2 weeks, 1 mg/ml in Buffer 1 (pH 8)"}, "[4]": {"details": "40° C., 2 weeks, 1 mg/ml in Buffer 1 (pH 8)"}, "[5]": {"details": "40° C., 100 mM NaPO4, pH7, +Sor (10% sorbitol) −Gly"}, "[6]": {"details": "40° C., 100 mM NaPO4, pH7, +Sor +Gly"}, "[7]": {"details": "40° C., 100 mM NaPO4, pH7, −Sor +Gly (10% glycerol)"}, "[8]": {"details": "40° C., 100 mM NaPO4, pH7, −Sor −Gly"}}, "note": "Changes are numbered by the printed parent chain. Names and notes keep the numbering of the source.", "data": [{"molecule": "B1", "values": [{"measurement": "Oxidation of M1 (MLEGEESVVYVGK)", "setting": "[1]; 4° C., 2 weeks", "value": 8.9, "unit": "%"}, {"measurement": "Deamidation of N83", "setting": "[1]; [3]", "value": 19.4, "unit": "%"}, {"measurement": "Deamidation of N137 (ANTDVK)", "setting": "[1]; [3]", "value": 1.0, "unit": "%"}, {"measurement": "Oxidation of M1 (MLEGEESVVYVGK)", "setting": "[1]; 40° C., 2 weeks", "value": 12.5, "unit": "%"}, {"measurement": "Deamidation of N83", "setting": "[1]; [4]", "value": 98.1, "unit": "%"}, {"measurement": "Deamidation of N137 (ANTDVK)", "setting": "[1]; [4]", "value": 0.9, "unit": "%"}, {"measurement": "Deamidation of N83", "setting": "[1]; [5]", "value": 93.9, "unit": "%"}, {"measurement": "Deamidation of N137", "setting": "[1]; [5]", "value": 2.6, "unit": "%"}, {"measurement": "Oxidation of M1", "setting": "[1]; [5]", "value": 12.1, "unit": "%"}, {"measurement": "Deamidation of N83", "setting": "[1]; [6]", "value": 87.4, "unit": "%"}, {"measurement": "Deamidation of N137", "setting": "[1]; [6]", "value": 2.5, "unit": "%"}, {"measurement": "Oxidation of M1", "setting": "[1]; [6]", "value": 27.8, "unit": "%"}, {"measurement": "Deamidation of N83", "setting": "[1]; [7]", "value": 96.2, "unit": "%"}, {"measurement": "Deamidation of N137", "setting": "[1]; [7]", "value": 3.0, "unit": "%"}, {"measurement": "Oxidation of M1", "setting": "[1]; [7]", "value": 38.6, "unit": "%"}, {"measurement": "Deamidation of N83", "setting": "[1]; [8]", "value": 98.1, "unit": "%"}, {"measurement": "Deamidation of N137", "setting": "[1]; [8]", "value": 0.9, "unit": "%"}, {"measurement": "Oxidation of M1", "setting": "[1]; [8]", "value": 20, "unit": "%"}, {"measurement": "LBP in serum (ELISA)", "setting": "[2]", "value": "no reduction in LBP"}, {"measurement": "Colon length", "setting": "[2]", "value": "significant increase in the colon length"}, {"measurement": "Colon weight to length ratio", "setting": "[2]", "value": "significantly improved colon weight to length ratios"}, {"measurement": "Body weight changes", "setting": "[2]", "value": "statistically improved body weight changes"}]}, {"molecule": "B2", "values": [{"measurement": "Oxidation of M1 (MLEGEESVVYVGK)", "setting": "[1]; 4° C., 2 weeks", "value": 2.5, "unit": "%"}, {"measurement": "Deamidation of N137 (ANTDVK)", "setting": "[1]; [3]", "value": 0.1, "unit": "%"}, {"measurement": "Oxidation of M1 (MLEGEESVVYVGK)", "setting": "[1]; 40° C., 2 weeks", "value": 4.7, "unit": "%"}, {"measurement": "Deamidation of N137 (ANTDVK)", "setting": "[1]; [4]", "value": 0.3, "unit": "%"}, {"measurement": "Deamidation of N137", "setting": "[1]; [5]", "value": 3.3, "unit": "%"}, {"measurement": "Oxidation of M1", "setting": "[1]; [5]", "value": 3.3, "unit": "%"}, {"measurement": "Deamidation of N137", "setting": "[1]; [6]", "value": 0.1, "unit": "%"}, {"measurement": "Oxidation of M1", "setting": "[1]; [6]", "value": 5.9, "unit": "%"}, {"measurement": "Deamidation of N137", "setting": "[1]; [7]", "value": 0.4, "unit": "%"}, {"measurement": "Oxidation of M1", "setting": "[1]; [7]", "value": 5.6, "unit": "%"}, {"measurement": "Deamidation of N137", "setting": "[1]; [8]", "value": 1.5, "unit": "%"}, {"measurement": "Oxidation of M1", "setting": "[1]; [8]", "value": 2.7, "unit": "%"}, {"measurement": "LBP in serum (ELISA)", "setting": "[2]", "value": "no reduction in LBP"}, {"measurement": "Colon length", "setting": "[2]", "value": "significant increase in the colon length"}, {"measurement": "Colon weight to length ratio", "setting": "[2]", "value": "significantly improved colon weight to length ratios"}, {"measurement": "Body weight changes", "setting": "[2]", "value": "statistically improved body weight changes"}]}]}
